B1: AKKYAKKAEKAYAKKAKAAKEKKAYAKKEAKAYKAAEAKKKAKAEAKKYAKEAAKAKKEAYKAEAKKYAKAAKAEKKEYAAAEAKKAEAAKAYKAEAAKAAAKEAAYEA (peptide)
chain: AKKYAKKAEKAYAKKAKAAKEKKAYAKKEAKAYKAAEAKKKAKAEAKKYAKEAAKAKKEAYKAEAKKYAKAAKAEKKEYAAAEAKKAEAAKAYKAEAAKAAAKEAAYEA
notes: reversed-phase fraction 2 used for calibration
B2: AKKYAKKEKAYAKKAEKAAKKAEAKAYKAAEAKKKAKAEAKKYAKAAKAEKKEYAAAEAKYKAEAAKKAYKAEAAKAAAKEAAYEA (peptide)
chain: AKKYAKKEKAYAKKAEKAAKKAEAKAYKAAEAKKKAKAEAKKYAKAAKAEKKEYAAAEAKYKAEAAKKAYKAEAAKAAAKEAAYEA
B3: AKKYAKKEKAYAKKAEKAAKKAEAKAYKAAEAKKKAKAEAKKYAKAAKAEKKEYAAAEAKYKAEAAKAAAKEAAYEA (peptide)
chain: AKKYAKKEKAYAKKAEKAAKKAEAKAYKAAEAKKKAKAEAKKYAKAAKAEKKEYAAAEAKYKAEAAKAAAKEAAYEA
B4: AKKYAKKEKAYAKAKKAEAKAAKKAKAEAKKYAKAAKAEKKEYAAAEAKYKAEAAKAAAKEAAYEA (peptide)
chain: AKKYAKKEKAYAKAKKAEAKAAKKAKAEAKKYAKAAKAEKKEYAAAEAKYKAEAAKAAAKEAAYEA

Legend:
[1] = system: experimental allergic encephalomyelitis (EAE) in (SJL/JxBALB/c)FI mice; test: Blocking of experimental allergic encephalomyelitis by injection with complete adjuvant; type: in vivo, mouse; settings: for Incidence of EAE: antigen included in the encephalitogenic inoculum, animals with EAE/animals in group; for % Blocking: blocking of EAE versus control without antigen; for Mean Score: disease score 0 (healthy) to 5 (dead); for Mean Onset: animals not protected, onset = day of score of at least 1
Description: Blocking of Experimental Allergic Encephalomyelitis—To test the physiological activity of TV-markers, protection from experimental allergic encephalomyelitis (EAE) was investigated in mice. Injection of Copolymer 1 in complete Freund's adjuvant together with the encephalitogen can block EAE essentially as described in Aharoni et al., 17 Eur. J. Immunol. 23 (1993). Other researchers have observed that the therapeutic effect of Copolymer 1 in multiple sclerosis patients is also associated with the induction of TH2 cells. Lahat et al., 244 J. Neurol. 129 (1997). In this example, EAE is blocked by different polypeptides of the present invention.
Pertussis toxin (0.25 ml, 250 ng, Sigma) is injected intravenously, immediately after and 48 hr later. […] 2156 (1979).
EAE blocking by injection with complete adjuvant—Each antigen being tested was included in the encephalitogenic inoculum. […] Also shown is the mean onset of EAE in animals which were not protected. Disease intensity is scored daily in mice with a score of zero (0=healthy) to five (5=dead).

[2] = system: anti-Cop-1 (3-3-9) monoclonal antibody; test: RIA: binding of anti-Cop 1 monoclonal antibody to coated antigen; settings: for % Cop 1 binding: relative to Cop 1 reference standard 03494; for Binding of mAb cpm: wells coated with 2 μg/ml antigen, 125I-goat anti-mouse IgG bound
[3] = system: anti-Cop-1 (3-1-45) monoclonal antibody; test: as above; settings: for % Cop 1 binding: relative to Cop 1 reference standard 03494; for Binding of mAb cpm: wells coated with 2 μg/ml antigen, 125I-goat anti-mouse IgG bound
[4] = system: anti-Cop-1 (5-7-2) monoclonal antibody; test: as above; settings: for % Cop 1 binding: relative to Cop 1 reference standard 03494; for Binding of mAb cpm: wells coated with 2 μg/ml antigen, 125I-goat anti-mouse IgG bound
[5] = system: BALB/c-Ts-Cop-1 T cell line; test: Proliferation of Cop 1 specific T cell line (3H-thymidine uptake); settings: for 3H-Thymidine incorporation (% Cop 1): 10 μg antigen, relative to 03494; for 3H-Thymidine incorporation cpm: cultured with 10 μg antigen
L-22-1 T cell clone = test: as above; settings: for 3H-Thymidine incorporation (% Cop 1): 10 μg antigen, relative to 03494; for 3H-Thymidine incorporation cpm: cultured with 10 μg antigen
[6] = system: SC-103 Cop 1 specific T cell clone; test: as above; settings: for 3H-Thymidine incorporation (% Cop 1): 10 μg antigen, relative to 03494; for 3H-Thymidine incorporation cpm: cultured with 10 μg antigen
[7] = system: SC-14 Cop 1 specific T cell clone; test: as above; settings: for 3H-Thymidine incorporation (% Cop 1): 10 μg antigen, relative to 03494; for 3H-Thymidine incorporation cpm: cultured with 10 μg antigen

| Molecule | Incidence of EAE [1] | % Blocking [1] | Mean Score [1] | % Cop 1 binding [2] | Binding of mAb cpm [2] | % Cop 1 binding [3] | Binding of mAb cpm [3] | % Cop 1 binding [4] | Binding of mAb cpm [4] | 3H-Thymidine incorporation (% Cop 1) [5] | 3H-Thymidine incorporation cpm [5] | 3H-Thymidine incorporation (% Cop 1) (L-22-1 T cell clone) | 3H-Thymidine incorporation cpm (L-22-1 T cell clone) | 3H-Thymidine incorporation (% Cop 1) [6] | 3H-Thymidine incorporation cpm [6] | 3H-Thymidine incorporation (% Cop 1) [7] | 3H-Thymidine incorporation cpm [7] | Mean Onset [1] |
| --- | --- | --- | --- | --- | --- | --- | --- | --- | --- | --- | --- | --- | --- | --- | --- | --- | --- | --- |
| AKKYAKKAKAEKAKKAYKAAEAKKAAKYEKAAAEKAAAKEAAYEA [TV-45] | 0/10 | 100% | 0 | – | – | – | – | – | – | – | – | – | – | – | – | – | – | – |
| AKKYAKKEKAAKKAYKKEAKAKAAEAAAKEAAYEA [TV-35] | – | – | – | (0) % | 1176 cpm | (0) % | 343 cpm | (1) % | 657 cpm | (28) % | 9465 cpm | (0) % | 225 cpm | (0) % | 438 cpm | (0) % | 884 cpm | – |
| AKKYAKKEKAYAKKAEKAAKKAEAKAYKAAEAKKKAEAKYKAEAAKAAAKEAAYEA [TV-56] | – | – | – | (2) % | 1614 cpm | (6) % | 1581 cpm | (91) % | 9584 cpm | (59) % | 19545 cpm | (0) % | 232 cpm | (0) % | 237 cpm | (117) % | 3495 cpm | – |
| B1 | 0/10 | 100% | 0 | – | – | – | – | – | – | – | – | – | – | – | – | – | – | – |
| B2 | 3/10 | 70% | 0.7 | (2) % | 1625 cpm | (6) % | 1606 cpm | (76) % | 8140 cpm | (44) % | 14694 cpm | (1) % | 418 cpm | (0) % | 298 cpm | (65) % | 2284 cpm | 12.0 days |
| B3 | 1/9 | 89% | 0.2 | (6) % | 2265 cpm | (9) % | 2152 cpm | (37) % | 4259 cpm | (52) % | 17367 cpm | (1) % | 300 cpm | (0) % | 327 cpm | (83) % | 2701 cpm | 14.0 days |
| B4 | 6/10 | 40% | 2.8 | – | – | – | – | – | – | – | – | – | – | – | – | – | – | 11.7 days |

Reference: patent US6514938B1, “Copolymer 1 related polypeptides for use as molecular weight markers and for therapeutic use” (Yeda Research and Development Co. Ltd. at the Weizmann …, priority 1998, dated 2003)
